Results as given in patent US20030022833A1 (GREENVILLE HOSPITAL SYSTEM, published 2003).
Where “and” joins values, the source holds several entries; their conditions need not be identical. Equal values may be shown once.

T1: human prolactin receptor (human, UniProt P16471 25-622)
T1 sequence (looked up): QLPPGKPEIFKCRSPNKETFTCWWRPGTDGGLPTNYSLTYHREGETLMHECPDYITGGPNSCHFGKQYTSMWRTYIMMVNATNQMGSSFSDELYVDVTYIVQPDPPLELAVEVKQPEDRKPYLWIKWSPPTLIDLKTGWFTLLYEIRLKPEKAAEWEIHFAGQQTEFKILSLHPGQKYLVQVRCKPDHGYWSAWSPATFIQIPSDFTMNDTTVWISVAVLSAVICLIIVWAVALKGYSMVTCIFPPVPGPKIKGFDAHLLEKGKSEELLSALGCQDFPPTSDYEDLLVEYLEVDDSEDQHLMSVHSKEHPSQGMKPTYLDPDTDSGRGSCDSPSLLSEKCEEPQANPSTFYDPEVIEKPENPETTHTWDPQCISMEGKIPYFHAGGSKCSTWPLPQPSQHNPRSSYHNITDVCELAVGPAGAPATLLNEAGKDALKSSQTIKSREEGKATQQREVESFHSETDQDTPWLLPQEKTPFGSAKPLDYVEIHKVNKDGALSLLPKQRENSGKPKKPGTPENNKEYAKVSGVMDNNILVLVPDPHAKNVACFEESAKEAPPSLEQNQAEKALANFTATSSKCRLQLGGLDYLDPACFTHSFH


Target: T1, human prolactin receptor
Assay: cell-based or functional assay

T47-D cell proliferation (96 well MTS assay) (molar ratio hPRL-G129R:hPRL) | apoptosis (DNA fragmentation, TUNEL assay) in T-47D cells | tyrosine phosphorylation of STAT proteins in T47-D cells (anti-phosphotyrosine immunoblot) (ratio hPRL-G129R:hPRL) | Molecule
1 and 2 | 1 | 5 | G129R variant of human prolactin (from UniProt P01236 29-227) (ligand)
– | 4 ratio hPRL:G129R | – | human prolactin (ligand, UniProt P01236 29-227, looked up) LPICPGGAARCQVTLRDLFDRAVVLSHYIHNLSSEMFSEFDKRYTHGRGFITKAINSCHTSSLATPEDKEQAQQMNQKDFLSLIVSILRSWNEPLYHLVTEVRGMQEAPEAILSKAVEIEEQTKRLLEGMELIVSQVHPETKENEIYPVWSGLPSLQMADEESRLSAYYNLLHCLRRDSHKIDNYLKLLKCRIIHNNNC
